Results as given in patent US20260028390A1, “ALPHA1-ANTITRYPSIN FOR USE IN THE TREATMENT OF DISEASES OR DISORDERS OF THE NERVOUS SYSTEM SUCH AS CHRONIC INFLAMMATORY DEMYELINATING POLYNEUROPATHY” (Ageronix SA, priority 2022, published 2026).

Assays:
[1] = biological target: T1, Recombinant Human TACE/ADAM17 (Homo sapiens, UniProt P78536); assay: Cell free TACE/ADAM17 activity; format: biochemical
T1 construct: purchased R&D Systems 930-ADB-010
Description: TACE activity and its inhibition by human AAT (AAT) was performed with Recombinant Human TACE/ADAM17 kit (930-ADB and ES003, R&D Systems) in black 96-well immuno plates (437111, ThermoFisher Scientific). The enzymatic activity of TACE/ADAM17 was measured by mixing 0.005 μg of rhTACE with 10 μM of Mca-PLAQAV-Dpa-RSSSR-NH2 fluorogenic peptide substrate III in assay buffer (25 mM Tris, 2.5 μM ZnCl2, 0.005% Brij-35 (w/v), pH 9.0) to a final volume of 100 μl. AAT (Sigma Aldrich, batch A6150) was resuspended in water (vehicle), control TACE/ADAM17 activity was assessed in presence of the vehicle (amount used for AAT 100 μM). AAT was added at different concentration (0, 6.25, 12.5, 25, 50 and 100 μM) to assess its dose-dependent inhibition of TACE/ADAM17. All conditions were performed in triplicates. Activity was measured as relative fluorescent unit (RFU) in a kinetic mode (9 time points over 5 min) with a SpectraMax iD3 Microplate Reader (low PMT gain, is exposition, top read at 1 mm, wavelength: excitation 320 nm, emission 405 nm). Bar graph as percentage of control activity was obtained by averaging the values obtained over the 5 min for each of the condition.
TACE activity is assessed according to the manufacturer's instruction (Recombinant Human TACE/ADAM17 kit, 930-ADB, R&D Systems) in kinetic mode, without or with different AAT concentration. All conditions were done in triplicates and are shown as mean±SD (FIGS. 5A, 5B and 5C).
ADAM-17 activity and its inhibition by human peptide 8 was measured with Recombinant Human ADAM-17 kit (Recombinant Human TACE/ADAM17 Protein, CF: 930-ADB-010 and Mca-PLAQAV-Dpa-RSSSR-NH2 Fluorogenic Peptide Substrate:ES003; R&D Systems) in black 96-well immunoplates (437111; Thermo Fisher Scientific). The enzymatic activity of ADAM-17 was measured by mixing 0.005 μg of rhADAM-17 with 10 μM of Mca-PLAQAV-Dpa-RSSSR-NH2 fluorogenic peptide substrate III in assay buffer (25 mM Tris, 2.5 μM ZnCl2, 0.005% Brij-35 (w/v), pH 9.0) to a final volume of 100 μL. Peptide 8 (Syngene) was dissolved in DMSO and diluted to the desired concentration in assay buffer. Control ADAM-17 activity was assessed in the presence of the assay buffer. […] All conditions were performed in triplicate. Activity was measured as relative fluorescent units (RFU) in endpoint mode (5 min) with a SpectraMax iD3 Microplate Reader (automatic PMT gain, wavelengths: excitation 320 nm, emission 405 nm).

[2] = biological target: Recombinant Human TACE/ADAM17 Protein (R&D Systems 930-ADB) (human) (UniProt P78536); assay: cell-based or functional assay
Recombinant Human TACE/ADAM17 Protein (R&D Systems 930-ADB) (human), sequence (P78536 215-671 limits assumed): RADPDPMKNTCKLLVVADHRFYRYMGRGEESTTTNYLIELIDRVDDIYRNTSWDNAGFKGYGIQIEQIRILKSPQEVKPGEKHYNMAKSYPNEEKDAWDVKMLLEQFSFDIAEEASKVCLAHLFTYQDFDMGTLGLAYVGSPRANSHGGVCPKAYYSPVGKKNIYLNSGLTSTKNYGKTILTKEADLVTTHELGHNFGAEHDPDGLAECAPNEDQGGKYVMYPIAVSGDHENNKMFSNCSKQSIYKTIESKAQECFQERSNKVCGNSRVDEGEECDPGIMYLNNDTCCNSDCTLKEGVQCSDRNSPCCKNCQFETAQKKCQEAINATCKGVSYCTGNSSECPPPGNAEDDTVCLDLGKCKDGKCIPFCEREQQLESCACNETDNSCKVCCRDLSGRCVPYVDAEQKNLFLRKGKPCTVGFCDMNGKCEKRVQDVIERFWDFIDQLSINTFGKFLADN

T1 sequence (P78536 215-671 limits assumed): as above

inhibition of ADAM17 activity ([1]; peptide 8 at concentration of 100 (μM), experiment 2) | inhibition of ADAM17 activity ([1]; peptide 8 at concentration of 200 (μM), experiment 2) | inhibition of ADAM17 activity ([1]; peptide 8 at concentrations up to 50 μM, vs DMSO) | IC50 of inhibition of TACE activity, cell-free fluorogenic peptide substrate assay [2] | Substance
36% | 65% | No significant inhibition |  | Ac-YRAHQGE-NH2 [Peptide 8, AAT-related peptide derived from immunoregulatory sites on the surface of AAT]
 |  |  | 15.3 µM | human alpha1-antitrypsin (AAT) (Sigma Aldrich, batch A6150) (from UniProt P01009 25-418)
